Assay results taken from the supplement of paper PMC10471632, “Protein engineering and iterative multimodule optimization for vitamin B6 production in Escherichia coli” (Nature Communications, 2023).
± gives the standard deviation of the averaged measurements.

B1: library; numbered along this chain (parent)
chain: MAELLLGVNIDHIATLRNARGTAYPDPVQAAFIAEQAGADGITVHLREDRRHITDRDVRILRQTLDTRMNLEMAVTEEMLAIAVETKPHFCCLVPEKRQEVTTEGGLDVAGQRDKMRDACKRLADAGIQVSLFIDADEEQIKAAAEVGAPFIEIHTGCYADAKTDAEQAQELARIAKAATFAASLGLKVNAGHGLTYHNVKAIAAIPEMHELNIGHAIIGRAVMTGLKDAVAEMKRLMLEARG

Variants of: B1
Assay: pyridoxine titer in culture supernatant of strain expressing the PdxJ variant; higher = more PN produced (higher in vivo pathway activity of the PdxJ variant)
Conditions: host strain: E. coli LL006; 48 h; temperature: 37 °C; FM1.4
Protocol: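 Rosetta-designed single to quadruple mutants of E. coli PdxJ (PNP synthase) were expressed from pRSFDuet-1 in the engineered chassis E. coli LL006 (MG1655 ΔpdxH::pdxST, pta::Eme_pdxP). Strains were grown in 24 deep-well plates in 2 mL FM1.4 glycerol medium at 37 °C and 800 rpm for 48 h. Extracellular pyridoxine (PN) titer was quantified by HPLC with fluorescence detection; two biological replicates, with the WT pdxJ strain (LL137, about 0.5 mg/L) as control.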

MAELLLGVNLDHIATLRNARGTYYPDPVQAAFIAEQAGADGITVHLREDRRHITDRDVRILRQTLDTRMNLEMAVTEEMLAIAVETKPHFCCLVPEKRQELTTTGGLDVAGQRDKMRDACKRLADAGIQVSLFIDADEEQIKAAAEVGAPFIEIHTGCYADAKTDAEQAQELARIAKAATFAASLGLKVNAGHGLTYHNVKAIAAIPEMHELNIGHAIIGRAVMTGLKDAVAEMKRLMLEARG [I10L A23Y V101L E104T] and MAELLLGVNLCHIATLRNARGTTYPDPVQAAFIAEQAGADGITVHLREDRRHITDRDVRILRQTLDTRMNLEMAVTEEMLAIAVETKPHFCCLVPEKRQEVTTEGGLDVAGQRDKMRDACKRLADAGIQVSLFIDADEEQIKAAAEVGAPFIEIHTGCYADAKTDAEQAQELARIAKAATFAASLGLKVNAGHGLTYHNVKAIAAIPEMHELNIGHAIIGRAVMTGLKDAVAEMKRLMLEARG [I10L D11C A23T] are within error of each other in pyridoxine titer: 0.246 ± 0.0055 mg/L for the first, 0.22 ± 0.057 mg/L for the second.

Going from MAELLLGVNLDHIATLRNARGTAYPDPVQAAFIAEQAGADGITVHLREDRRHITDRDVRILRQTLDTRMNLEMAVTEEMLAIAVETKPHFCCLVPEKRQEVTTEGGLDVAGQRDKMRDACKRLADAGIQVSLFIDADEEQIKAAAEVGAPFIEIHTGCYADAKTDAEQAQELARIAKAATFAASLGLKVNAGHCLTYHNVKAIAAIPEMHELNIGHALIGRAVMTGLKDAVAEMKRLMLEARG [I10L G194C I218L] to MAELLLGVNLDHIATLRNARGTAYPDPVQAAFIAEQAGADGITVHLREDRRHITDRDVRILRQTLDTRMNLEMAVTEEMLAIAVETKPHFCCLVPEKRQIVTTEGGLDVAGQRDKMRDACKRLADAGIQVSLFIDADEEQIKAAAEVGAPFIEIHTGCYADAKTDAEQAQELARIAKAATFAASLGLKVNAGHGLTYHNVKAIAAIPEMHELNIGHALIGRAVMTGLKDAVAEMKRLMLEARG [I10L E100I I218L], the pyridoxine titer falls from 1.45 ± 0.3 mg/L to 0.24 ± 0.16 mg/L (6-fold).

Going from MAELLLGVNLDHIATLRNARGTAYPDPVQAAFIAEQAGADGITVHLREDRRHITDRDVRILRQTLDTRMNLEMAVTEEMLAIAVETKPHFCCLVPEKRQEVTTTGGLDVAGQRDKMRDACKRLADAGIQVSLFIDADEEQIKAAAEVGAPFIEIHTGCYADAKTDAEQAQELARIAKAATFAASLGLKVNAGHQLTYHNVKAIAAIPEMHELNIGHALIGRAVMTGLKDAVAEMKRLMLEARG [I10L E104T G194Q I218L] to MAELLLGVNLDHIATLRNARGTAYPDPVQAAFIAEQAGADGITVHLREDRRHITDRDVRILRQTLDTRMNLEMAVTEEMLAIAVETKPHFCCLVPEKRQEVTTTGGLDVAGQRDKMRDACKRLADAGIQVSLFIDADEEQIKAAAEVGAPFIEIHTGCYADAKTDAEQAQELARIAKAATFAASLGLKVNAGHGLTYHNVKAIAAIPEMHELNIGHALWGRAVMTGLKDAVAEMKRLMLEARG [I10L E104T I218L I219W], the pyridoxine titer falls from 1.46 ± 0.011 mg/L to 0.561 ± 0.22 mg/L (2.6-fold).

Compared with MAELLLGVNLDHIATLRNARGTAYPDPVQAAFIAEQAGADGITVHLREDRRHITDRDVRILRQTLDTRMNLEMAVTEEMLAIAVETKPHFCCLVPEKRQEVTTTGGLDVAGQRDKMRDACKRLADAGIQVSLFIDADEEQIKAAAEVGAPFIEIHTGCYADAKTDAEQAQELARIAKAATFAASLGLKVNAGHGLTYHNVKAIAAIPEMHELNIGHALMGRAVMTGLKDAVAEMKRLMLEARG [I10L E104T I218L I219M], MAELLLGVNLDHIATLRNARGTAYPDPVQAAFIAEQAGADGITVHLREDRRHITDRDVRILRQTLDTRMNLEMAVTEEMLAIAVETKPHFCCLVPEKRQEVTTEGGLDVAGQRDKMRDACKRLADAGIQVSLFIDADEEQIKAAAEVGAPFIEIHTGCYADAKTDAEQAQELARIAKAATFAASLGLKVNAGHGLTYHNVKAIAAIPEMHELNIGHVIIGRAVMTGLKDAVAEMKRLMLEARG [I10L A217V] is 1.5-fold higher in pyridoxine titer: 0.32 ± 0.054 mg/L for the first, 0.48 ± 0.028 mg/L for the second.

Compared with MAELLLGVNLDHIATLRNARGTAYPDPVQAAFIAEQAGADGITVHLREDRRHITDRDVRILRQTLDTRMNLEMAVTEEMLAIAVETKPHFCCLVPEKRQEVTTTGGLDVAGQRDKMRDACKRLADAGIQVSLFIDADEEQIKAAAEVGAPFIEIHTGCYADAKTDAEQAQELARIAKAATFAASLGLKVNAGHGLTYHNVKAIAAIPEMHELNIGHAIIGRAVMTGLKDAVAEMKRLMLEARG [I10L E104T], MAELLLGVNLDHIATLRNARGTAYPDPVQAAFIAEQAGADGITVHLREDRRHITDRDVRILRQTLDTRMNLEMAVTEEMLAIAVETKPHFCCLVPEKRQEVTTTGGLDVAGQRDKMRDACKRLADAGIQVSLFIDADEEQIKAAAEVGAPFIEIHTGCYADAKTDAEQAQELARIAKAATFAASLGLKVNAGHGLTYHNVKAIAAIPEMHELNIGHALIGRAVMTGLKDAVAEMKRLMLEARG [I10L E104T I218L] is 3.4-fold higher in pyridoxine titer: 1.1 ± 0.48 mg/L for the first, 3.74 ± 0.56 mg/L for the second.

MAELLLGVNLDHIATLRNARGTWYPDPVQAAFIAEQAGADGITVHLREDRRHITDRDVRILRQTLDTRMNLEMAVTEEMLAIAVETKPHFCCLVPEKRQELTTTGGLDVAGQRDKMRDACKRLADAGIQVSLFIDADEEQIKAAAEVGAPFIEIHTGCYADAKTDAEQAQELARIAKAATFAASLGLKVNAGHGLTYHNVKAIAAIPEMHELNIGHAIIGRAVMTGLKDAVAEMKRLMLEARG [I10L A23W V101L E104T] and MAELLLGVNLDHIATLRNARDVAYPDPVQAAFIAEQAGADGITVHLREDRRHITDRDVRILRQTLDTRMNLEMAVTEEMLAIAVETKPHFCCLVPEKRQEVTTTGGLDVAGQRDKMRDACKRLADAGIQVSLFIDADEEQIKAAAEVGAPFIEIHTGCYADAKTDAEQAQELARIAKAATFAASLGLKVNAGHGLTYHNVKAIAAIPEMHELNIGHAIIGRAVMTGLKDAVAEMKRLMLEARG [I10L G21D T22V E104T] are within error of each other in pyridoxine titer: 1.8 ± 0.37 mg/L for the first, 2.44 ± 1.1 mg/L for the second.
